According to PMC10588359, “14‐3‐3 protein inhibits CaMKK1 by blocking the kinase active site with its last two C‐terminal helices” (Protein Science : A Publication of the Protein Society, 2023):
Each block holds one binder with its values, some of them ahead of it.

B1: Human 14‐3‐3γ (residues 1–235 lacking the C‐terminal 12‐residues‐long flexible tail) (domain or fragment, UniProt P61981 1-235, looked up)
chain: MVDREQLVQKARLAEQAERYDDMAAAMKNVTELNEPLSNEERNLLSVAYKNVVGARRSSWRVISSIEQKTSADGNEKKIEMVRAYREKIEKELEAVCQDVLSLLDNYLIKNCSETQYESKVFYLKMKGDYYRYLAEVATGEKRATVVESSEKAYSEAHEISKEHMQPTHPIRLGLALNYSVFYYEIQNAPEQACHLAKTAFDDAIAELDTLNEDSYKDSTLIMQLLRDNLTLWTS
notes: human 14-3-3γ, residues 1-235, lacking the C-terminal 12 residues; Homodimer; also called 14-3-3γ dimer; source: expressed and purified as described previously (Obsilova et al., 2004)
B2: pCaMKK2: CaMKK2_(93–517) D330A phosphorylated by PKA at all four sites (domain or fragment, human, UniProt Q96RR4 93-517, looked up)
chain: HLSGRKLSLQERSQGGLAAGGSLDMNGRCICPSLPYSPVSSPQSSPRLPRRPTVESHHVSITGMQDCVQLNQYTLKDEIGKGSYGVVKLAYNENDNTYYAMKVLSKKKLIRQAGFPRRPPPRGTRPAPGGCIQPRGPIEQVYQEIAILKKLDHPNVVKLVEVLDDPNEDHLYMVFELVNQGPVMEVPTLKPLSEDQARFYFQDLIKGIEYLHYQKIIHRDIKPSNLLVGEDGHIKIAAFGVSNEFKGSDALLSNTVGTPAFMAPESLSETRKIFSGKALDVWAMGVTLYCFVFGQCPFMDERIMCLHSKIKSQALEFPDQPDIAEDLKDLITRMLDKNPESRIVVPEIKLHPWVTRHGAEPLPSEDENCTLVEVTEEEVENSVKHIPSLATVILVKTMIRKRSFGNPFEGSRREERSLSAPGNLL
modifications: phosphoserine at 100, phosphothreonine at 145, phosphoserine at 495, phosphoserine at 511 (PKA; stoichiometric by LC-MS)
notes: Same construct as m3 after PKA phosphorylation; also called phosphorylated CaMKK2; source: E. coli BL21 (DE3), purified, phosphorylated by PKA in vitro, SEC
B7: pCaMKK1: CaMKK1_(67–480) D293A phosphorylated by PKA at all four sites (domain or fragment, human, UniProt Q8N5S9 67-480, looked up)
chain: SLSARKLSLQERPAGSYLEAQAGPYATGPASHISPRAWRRPTIESHHVAISDAEDCVQLNQYKLQSEIGKGAYGVVRLAYNESEDRHYAMKVLSKKKLLKQYGFPRRPPPRGSQAAQGGPAKQLLPLERVYQEIAILKKLDHVNVVKLIEVLDDPAEDNLYLVFDLLRKGPVMEVPCDKPFSEEQARLYLRDVILGLEYLHCQKIVHRDIKPSNLLLGDDGHVKIAAFGVSNQFEGNDAQLSSTAGTPAFMAPEAISDSGQSFSGKALDVWATGVTLYCFVYGKCPFIDDFILALHRKIKNEPVVFPEEPEISEELKDLILKMLDKNPETRIGVPDIKLHPWVTKNGEEPLPSEEEHCSVVEVTEEEVKNSVRLIPSWTTVILVKSMLRKRSFGNPFEPQARREERSMSAPGNL
modifications: phosphoserine at 74, phosphothreonine at 108, phosphoserine at 458, phosphoserine at 475 (PKA; stoichiometric by LC-MS)
notes: Same construct as m1 after PKA phosphorylation; also called phosphorylated CaMKK1; source: E. coli BL21 (DE3), purified, phosphorylated by PKA in vitro, SEC

What was measured:
[1] = target: the molecule itself; experiment: SEC-SAXS; in-line SEC-SAXS on Superdex 200 Increase 5/150 GL; complexes mixed at 1:2 molar ratio (pCaMKK:14-3-3γ); 50 mM Tris–HCl pH 7.5, 150 mM NaCl, 1 mM TCEP, 3% glycerol
[2] = target: B7; experiment: AUC; sedimentation velocity of mixtures of 0.06–6 μM pCaMKK1 or pCaMKK2 with 1.2 μM 14-3-3γ; direct modeling with the Lamm equation, Langmuir binding model, one pCaMKK on a 14-3-3γ homodimer; apparent KD; 50 mM Tris–HCl pH 7.5, 150 mM NaCl, 1 mM TCEP; 20°C; conditions: both partners purified
[3] = target: B2; experiment: as above; conditions: both partners purified
[4] = target: T1, Dansyl‐labeled rat calmodulin (DANS‐CaM), Ca^2+-bound (rat, UniProt P0DP29 1-149, dansyl label (dansyl chloride; site not stated)); experiment: fluorescence polarisation; 2 μM DANS-CaM titrated by 30 μM CaMKK proteins and their binary dilution series, with and without 60 μM 14-3-3γ; 10 mM HEPES–NaOH pH 7.4, 150 mM NaCl, 1 mM CaCl2, 0.1% Tween 20, 0.1% BSA; one-site-binding model; conditions: both partners purified
T1 construct: rat calmodulin, labeled with dansyl chloride; Assays in 1 mM CaCl2; also called dansyl-Ca^2+/CaM; DANS-labeled CaM; source: prepared as described previously (Holakovska et al., 2011), labeled by dansyl chloride, SEC

[5] = target: B1; experiment: AUC; sedimentation velocity of mixtures of 0.06–6 μM pCaMKK1 or pCaMKK2 with 1.2 μM 14-3-3γ; direct modeling with the Lamm equation, Langmuir binding model, one pCaMKK on a 14-3-3γ homodimer; apparent KD; 50 mM Tris–HCl pH 7.5, 150 mM NaCl, 1 mM TCEP; 20°C; conditions: both partners purified
[6] = target: T2, Rat calmodulin, Ca^2+-bound (Ca^2+/CaM) (rat, UniProt P0DP29 1-149); experiment: AUC; sedimentation velocity of CaMKK1 or CaMKK2 with Ca^2+/CaM (1:1 molar ratio); 50 mM Tris–HCl pH 7.5, 150 mM NaCl, 1 mM TCEP, 1 mM CaCl2; 20°C; conditions: both partners purified
T2 construct: rat calmodulin; Unlabelled CaM, used with 1 mM CaCl2 in the ultracentrifuge; source: prepared as described previously (Holakovska et al., 2011)

[7] = target: T3, dansyl-labeled calmodulin (DANS-CaM), Ca2+-bound (rat, UniProt P0DP29 1-149, dansyl label (dansyl chloride; site not stated)); experiment: fluorescence polarisation; as a1 but with 60 μM 14-3-3γ present: 2 μM DANS-CaM titrated with CaMKK (30 μM and binary dilution series), 1 h incubation; 10 mM HEPES-NaOH pH 7.4, 150 mM NaCl, 1 mM CaCl2, 0.1% Tween 20, 0.1% BSA; one-site-binding model; conditions: both partners purified
T3 construct: rat calmodulin (CaM); The assay buffer held 1 mM CaCl2 (Ca2+/CaM); also called dansyl-Ca2+/CaM; source: prepared as described previously (Holakovska et al., 2011); labeled with dansyl chloride, SEC

[8] = target: T3, dansyl-labeled calmodulin (DANS-CaM), …; experiment: fluorescence polarisation; 2 μM DANS-CaM titrated with CaMKK (30 μM and binary dilution series), 1 h incubation; 10 mM HEPES-NaOH pH 7.4, 150 mM NaCl, 1 mM CaCl2, 0.1% Tween 20, 0.1% BSA; one-site-binding model; conditions: both partners purified

Binder: B1
- stoichiometry N [1]: 2
- Kd [2]: 21 ± 3 nM
- Kd [3]: 60 ± 15 nM

Binder: B2
- binding result [4]: binds
- stoichiometry N [5]: 2 14-3-3γ protomers per pCaMKK

- stoichiometry N [6]: 1
B3: CaMKK2_(93–517) D330A, unphosphorylated (domain or fragment)
chain: HLSGRKLSLQERSQGGLAAGGSLDMNGRCICPSLPYSPVSSPQSSPRLPRRPTVESHHVSITGMQDCVQLNQYTLKDEIGKGSYGVVKLAYNENDNTYYAMKVLSKKKLIRQAGFPRRPPPRGTRPAPGGCIQPRGPIEQVYQEIAILKKLDHPNVVKLVEVLDDPNEDHLYMVFELVNQGPVMEVPTLKPLSEDQARFYFQDLIKGIEYLHYQKIIHRDIKPSNLLVGEDGHIKIAAFGVSNEFKGSDALLSNTVGTPAFMAPESLSETRKIFSGKALDVWAMGVTLYCFVFGQCPFMDERIMCLHSKIKSQALEFPDQPDIAEDLKDLITRMLDKNPESRIVVPEIKLHPWVTRHGAEPLPSEDENCTLVEVTEEEVENSVKHIPSLATVILVKTMIRKRSFGNPFEGSRREERSLSAPGNLL
notes: also called Ca^2+/CaM-dependent protein kinase kinase 2; Not-P CaMKK2; source: E. coli BL21 (DE3), purified

- Kd [7]: 630 ± 70 nM
- Kd [8]: 600 ± 110 nM
B4: CaMKK1(67-480) D293A, unphosphorylated (domain or fragment)
chain: SLSARKLSLQERPAGSYLEAQAGPYATGPASHISPRAWRRPTIESHHVAISDAEDCVQLNQYKLQSEIGKGAYGVVRLAYNESEDRHYAMKVLSKKKLLKQYGFPRRPPPRGSQAAQGGPAKQLLPLERVYQEIAILKKLDHVNVVKLIEVLDDPAEDNLYLVFDLLRKGPVMEVPCDKPFSEEQARLYLRDVILGLEYLHCQKIVHRDIKPSNLLLGDDGHVKIAAFGVSNQFEGNDAQLSSTAGTPAFMAPEAISDSGQSFSGKALDVWATGVTLYCFVYGKCPFIDDFILALHRKIKNEPVVFPEEPEISEELKDLILKMLDKNPETRIGVPDIKLHPWVTKNGEEPLPSEEEHCSVVEVTEEEVKNSVRLIPSWTTVILVKSMLRKRSFGNPFEPQARREERSMSAPGNL
notes: source: E. coli BL21 (DE3), purified

- stoichiometry N [6]: 1
B5: CaMKK1_(67–480) D293A, unphosphorylated (domain or fragment)
chain: SLSARKLSLQERPAGSYLEAQAGPYATGPASHISPRAWRRPTIESHHVAISDAEDCVQLNQYKLQSEIGKGAYGVVRLAYNESEDRHYAMKVLSKKKLLKQYGFPRRPPPRGSQAAQGGPAKQLLPLERVYQEIAILKKLDHVNVVKLIEVLDDPAEDNLYLVFDLLRKGPVMEVPCDKPFSEEQARLYLRDVILGLEYLHCQKIVHRDIKPSNLLLGDDGHVKIAAFGVSNQFEGNDAQLSSTAGTPAFMAPEAISDSGQSFSGKALDVWATGVTLYCFVYGKCPFIDDFILALHRKIKNEPVVFPEEPEISEELKDLILKMLDKNPETRIGVPDIKLHPWVTKNGEEPLPSEEEHCSVVEVTEEEVKNSVRLIPSWTTVILVKSMLRKRSFGNPFEPQARREERSMSAPGNL
notes: Cloned into pRSFDuet-1; purification as in Psenakova et al., 2018; also called Ca^2+/CaM-dependent protein kinase kinase 1; Not-P CaMKK1; source: E. coli BL21 (DE3), purified

- Kd [8]: 2160 ± 300 nM
B6: pCaMKK1: CaMKK1(67-480) D293A phosphorylated by PKA at four sites (domain or fragment)
chain: SLSARKLSLQERPAGSYLEAQAGPYATGPASHISPRAWRRPTIESHHVAISDAEDCVQLNQYKLQSEIGKGAYGVVRLAYNESEDRHYAMKVLSKKKLLKQYGFPRRPPPRGSQAAQGGPAKQLLPLERVYQEIAILKKLDHVNVVKLIEVLDDPAEDNLYLVFDLLRKGPVMEVPCDKPFSEEQARLYLRDVILGLEYLHCQKIVHRDIKPSNLLLGDDGHVKIAAFGVSNQFEGNDAQLSSTAGTPAFMAPEAISDSGQSFSGKALDVWATGVTLYCFVYGKCPFIDDFILALHRKIKNEPVVFPEEPEISEELKDLILKMLDKNPETRIGVPDIKLHPWVTKNGEEPLPSEEEHCSVVEVTEEEVKNSVRLIPSWTTVILVKSMLRKRSFGNPFEPQARREERSMSAPGNL
modifications: phosphoserine at 74, phosphothreonine at 108, phosphoserine at 458, phosphoserine at 475
notes: also called 4xPhosphorylated CaMKK1; source: E. coli BL21 (DE3), purified; phosphorylated with PKA, then SEC

Binder: B7
- stoichiometry N [5]: 2 14-3-3γ protomers per pCaMKK
